The labels stand for the following.
B1: Arginase, O25949 (parent)
chain: MILVGLEAELGASKRGTDKGVRRLREALSATHGDVIKGMQTITQERCVLYKEFRYAKNFEDYYLFCKENLIPCMKEVFEKKEFPLILSSEHANMFGIFQAFRSVHKDKKIGILYLDAHADIHTAYDSDSKHIHGMPLGMVLNRVRSGFNRMSESEEKAWQKLCSLGLEKGGLEIDPKCLVYFGVRSTEQSERDVIRELQIPLFSVDAIRENMQEVVQKTKESLKAVDIIYLSLDLDIMDGKLFTSTGVRENNGLSFDELKQLLGLLLESFKDRLKAVEVTEYNPTVSIKHNNEEEKQVLEILDLIINSCKIKDKKHSFARSY

Several values for one entry are separate records, joined by “and”; a condition that tells them apart may be missing. Equal entries are not always repeated.

The series covers variants of B1. Particulars: Helicobacter pylori (strain ATCC 700392 / 26695); pH 7.2; Thermal; CD; Tris-HCl 20 mM; transition: 2; reversible: yes; structure 4G3H; whole UniProt chain shown.

In the case of L162A, the “change of melting temperature, mutant - wild type (higher = more stable)” value (“change of melting temperature, mutant” for short) is -2.7 °C and -7 °C.

In the case of Q160A, the Tm is 64.4 °C and 62.8 °C; the “change of melting temperature, mutant” value was -5.6 °C and -5.2 °C.

In the case of E156A, the melting temperature (Tm) worked out at 59 °C and the “change of melting temperature, mutant” value is -9 °C.

For the variant W159A, the Tm came to 51 °C and the “change of melting temperature, mutant” value was -17 °C.

W159F: the Tm is 64.8 °C and 59.9 °C; the “change of melting temperature, mutant” value is -5.2 °C and -8.1 °C.

Turning to S164A, the Tm is 70.7 °C and the “change of melting temperature, mutant” value worked out at 0.7 °C.

As to E153A, the Tm came to 69.8 °C and the “change of melting temperature, mutant” value is -0.2 °C.

With D126A, the Tm turned out to be 61 °C and the “change of melting temperature, mutant” value is -7 °C.

In the case of K157A, the Tm worked out at 57.7 °C and the “change of melting temperature, mutant” value is -10.3 °C.

The Tm is the temperature at which the thermal transition is half complete.

(Values after FireProtDB (doi:10.1021/bi301421v).)
